From patent publication US20240238439A1, “HER3-BINDING ANTIBODY-DRUG CONJUGATE” (priority 2023, published 2024)

Experiments:
[1] = target: HER3 on the surface of human cancer cell lines (HCT116, DU145, H358, T-47D, OVCAR8) (UniProt P21860); assay: flow cytometry; H358 cells
[2] = target: HER3 on the surface of human cancer cell lines (HCT116, DU145, H358, T-47D, OVCAR8) (UniProt P21860); assay: flow cytometry; DU145 cells
[3] = target: HER3 on the surface of human cancer cell lines (HCT116, DU145, H358, T-47D, OVCAR8) (UniProt P21860); assay: flow cytometry; HCT116 cells
[4] = target: HER3 on the surface of human cancer cell lines (HCT116, DU145, H358, T-47D, OVCAR8) (UniProt P21860); assay: flow cytometry; OVCAR8 cells
FCɣR IA (CD64) (human) = FCɣR IA (CD64) (human) (UniProt P12314); assay: SPR
FCɣR IIA (CD32a) (human) = FCɣR IIA (CD32a) (human) (UniProt P12318); assay: SPR
Chain of FCɣR IIA (CD32a) (human) (P12318 34-217): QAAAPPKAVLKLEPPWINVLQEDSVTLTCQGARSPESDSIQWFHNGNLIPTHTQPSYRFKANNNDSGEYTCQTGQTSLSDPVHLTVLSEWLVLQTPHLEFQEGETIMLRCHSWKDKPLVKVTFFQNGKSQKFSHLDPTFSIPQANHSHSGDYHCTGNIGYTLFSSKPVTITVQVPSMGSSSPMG

Chain of FCɣR IA (CD64) (human) (P12314 16-288): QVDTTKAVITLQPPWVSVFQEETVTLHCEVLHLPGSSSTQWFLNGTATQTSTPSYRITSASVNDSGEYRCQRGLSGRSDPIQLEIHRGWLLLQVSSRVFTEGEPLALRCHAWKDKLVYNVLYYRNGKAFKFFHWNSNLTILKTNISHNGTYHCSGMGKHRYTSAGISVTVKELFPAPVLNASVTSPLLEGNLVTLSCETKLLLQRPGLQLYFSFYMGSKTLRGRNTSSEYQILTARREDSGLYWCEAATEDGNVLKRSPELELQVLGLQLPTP

Substance	EC50 [1] [nM]	EC50 [2] [nM]	EC50 [3] [nM]	EC50 [4] [nM]	Kd (FCɣR IA (CD64) (human)) [nM]	Kd (FCɣR IIA (CD32a) (human)) [nM]
Patritumab-DXd	8.23	2.4	0.756	1.01		
Human IgG1 (+ve control)					6.5	56.9
